The target of the assay is T1, Aurora-A kinase (Aur-A) peptide on HLA-A*02:01 (human).
T1 peptide: YLILEYAPL
The assay can be described thus: multimer staining.

B1: TCR of the Aur-A-specific CTL clone AUR-1 (SEQ ID NOs 1 and 2) (TCR, V domains shown)
Valpha: AQSVAQPEDQVNVAEGNPLTVKCTYSVSGNPYLFWYVQYPNRGLQFLLKYITGDNLVKGSYGFEAEFNKSQTSFHLKKPSALVSDSALYFCAVRDSNSNDYKLSFGAGTTVTVRA
Vbeta: DAGITQSPRHKVTETGTPVTLRCHQTENHRYMYWYRQDPGHGLRLIHYSYGVKDTDKGEVSDGYSVSRSKTEDFLLTLESATSSQTSVYFCAISESSFAQPMNTEAFFGQGTRLTVV
Consider B1, for which the binding result is “recognises”.

These data come from patent US20120009162A1 (published 2012).
